Source: IntAct's records for PubMed 28698298

B1: GRB10-interacting GYF protein 2 (Homo sapiens), Q6Y7W6 (parent)
chain: MAAETQTLNFGPEWLRALSSGGSITSPPLSPALPKYKLADYRYGREEMLALFLKDNKIPSDLLDKEFLPILQEEPLPPLALVPFTEEEQRNFSMSVNSAAVLRLTGRGGGGTVVGAPRGRSSSRGRGRGRGECGFYQRSFDEVEGVFGRGGGREMHRSQSWEERGDRRFEKPGRKDVGRPNFEEGGPTSVGRKHEFIRSESENWRIFREEQNGEDEDGGWRLAGSRRDGERWRPHSPDGPRSAGWREHMERRRRFEFDFRDRDDERGYRRVRSGSGSIDDDRDSLPEWCLEDAEEEMGTFDSSGAFLSLKKVQKEPIPEEQEMDFRPVDEGEECSDSEGSHNEEAKEPDKTNKKEGEKTDRVGVEASEETPQTSSSSARPGTPSDHQSQEASQFERKDEPKTEQTEKAEEETRMENSLPAKVPSRGDEMVADVQQPLSQIPSDTASPLLILPPPVPNPSPTLRPVETPVVGAPGMGSVSTEPDDEEGLKHLEQQAEKMVAYLQDSALDDERLASKLQEHRAKGVSIPLMHEAMQKWYYKDPQGEIQGPFNNQEMAEWFQAGYFTMSLLVKRACDESFQPLGDIMKMWGRVPFSPGPAPPPHMGELDQERLTRQQELTALYQMQHLQYQQFLIQQQYAQVLAQQQKAALSSQQQQQLALLLQQFQTLKMRISDQNIIPSVTRSVSVPDTGSIWELQPTASQPTVWEGGSVWDLPLDTTTPGPALEQLQQLEKAKAAKLEQERREAEMRAKREEEERKRQEELRRQQEEILRRQQEEERKRREEEELARRKQEEALRRQREQEIALRRQREEEERQQQEEALRRLEERRREEEERRKQEELLRKQEEEAAKWAREEEEAQRRLEENRLRMEEEAARLRHEEEERKRKELEVQRQKELMRQRQQQQEALRRLQQQQQQQQLAQMKLPSSSTWGQQSNTTACQSQATLSLAEIQKLEEERERQLREEQRRQQRELMKALQQQQQQQQQKLSGWGNVSKPSGTTKSLLEIQQEEARQMQKQQQQQQQHQQPNRARNNTHSNLHTSIGNSVWGSINTGPPNQWASDLVSSIWSNADTKNSNMGFWDDAVKEVGPRNSTNKNKNNASLSKSVGVSNRQNKKVEEEEKLLKLFQGVNKAQDGFTQWCEQMLHALNTANNLDVPTFVSFLKEVESPYEVHDYIRAYLGDTSEAKEFAKQFLERRAKQKANQQRQQQQLPQQQQQQPPQQPPQQPQQQDSVWGMNHSTLHSVFQTNQSNNQQSNFEAVQSGKKKKKQKMVRADPSLLGFSVNASSERLNMGEIETLDDY
B2: Eukaryotic translation initiation factor 4E type 2 (Homo sapiens), O60573-1 (parent)
chain: MNNKFDALKDDDSGDHDQNEENSTQKDGEKEKTERDKNQSSSKRKAVVPGPAEHPLQYNYTFWYSRRTPGRPTSSQSYEQNIKQIGTFASVEQFWRFYSHMVRPGDLTGHSDFHLFKEGIKPMWEDDANKNGGKWIIRLRKGLASRCWENLILAMLGEQFMVGEEICGAVVSVRFQEDIISIWNKTASDQATTARIRDTLRRVLNLPPNTIMEYKTHTDSIKMPGRLGPQRLLFQNLWKPRLNVP
partner: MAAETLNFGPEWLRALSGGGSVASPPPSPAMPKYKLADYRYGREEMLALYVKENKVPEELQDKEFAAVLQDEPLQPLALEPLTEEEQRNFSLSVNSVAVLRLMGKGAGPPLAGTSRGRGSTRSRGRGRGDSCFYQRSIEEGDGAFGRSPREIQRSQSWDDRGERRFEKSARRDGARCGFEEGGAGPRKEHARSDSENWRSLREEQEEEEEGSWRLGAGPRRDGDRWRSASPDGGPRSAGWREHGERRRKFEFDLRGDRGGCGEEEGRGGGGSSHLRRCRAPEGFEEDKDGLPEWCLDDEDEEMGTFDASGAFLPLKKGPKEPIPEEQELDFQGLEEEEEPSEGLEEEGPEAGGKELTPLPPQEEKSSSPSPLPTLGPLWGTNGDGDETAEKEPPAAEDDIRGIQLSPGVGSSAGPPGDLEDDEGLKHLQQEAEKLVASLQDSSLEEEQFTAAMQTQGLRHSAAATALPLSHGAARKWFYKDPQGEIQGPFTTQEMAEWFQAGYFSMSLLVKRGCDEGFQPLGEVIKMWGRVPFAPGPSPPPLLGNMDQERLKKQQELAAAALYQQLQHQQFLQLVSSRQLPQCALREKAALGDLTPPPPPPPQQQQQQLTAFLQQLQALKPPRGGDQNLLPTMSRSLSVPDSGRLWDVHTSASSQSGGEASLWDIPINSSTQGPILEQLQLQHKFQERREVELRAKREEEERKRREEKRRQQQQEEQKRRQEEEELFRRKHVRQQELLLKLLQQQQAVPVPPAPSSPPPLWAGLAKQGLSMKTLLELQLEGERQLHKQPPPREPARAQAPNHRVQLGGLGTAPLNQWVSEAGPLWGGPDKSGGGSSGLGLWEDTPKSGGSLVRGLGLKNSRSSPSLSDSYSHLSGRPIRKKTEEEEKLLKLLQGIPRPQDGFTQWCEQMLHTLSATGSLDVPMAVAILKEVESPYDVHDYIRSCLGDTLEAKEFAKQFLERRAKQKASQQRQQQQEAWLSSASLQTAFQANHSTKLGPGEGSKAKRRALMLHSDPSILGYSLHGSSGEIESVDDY
B3: Eukaryotic translation initiation factor 4E type 2 (Homo sapiens), O60573-1 (parent)
chain: B2 chain
B4: Eukaryotic translation initiation factor 4E type 2 (Homo sapiens), O60573-1 (parent)
chain: B2 chain
partner: B1 chain
B5: GRB10-interacting GYF protein 1 (Homo sapiens), O75420 (parent)
chain: B2 partner

Variants of: B1
Conditions: with EIF4E2, O60573-1

Variant	effect of a mutation on the interaction
E46A;E47F;Q89A	with no effect

Variants of: B1
Conditions: with EIF4E2, O60573-1
Remark: another data set of the same source

Variant	effect of a mutation on the interaction
E46A;E47F;Q89A	with no effect

Variants of: B1
Conditions: with EIF4E2, O60573-1
Remark: another data set of the same source

Variant	effect of a mutation on the interaction
Y41A;Y43A;M48A;L49A	disrupting interaction strength

Variants of: B2
Conditions: with ggyf1_human GIGYF1, O75420

Variant	effect of a mutation on the interaction
W95A	disrupting interaction strength
I85A;M101A	decreasing interaction strength
I85A;W95A;M101A	disrupting interaction strength

Variants of: B2
Conditions: with ggyf1_human GIGYF1, O75420
Remark: another data set of the same source

Variant	effect of a mutation on the interaction
W95A	with no effect
I85A;M101A	with no effect

Variants of: B2
Conditions: with ggyf1_human GIGYF1, O75420
Remark: another data set of the same source

Variant	effect of a mutation on the interaction
Q159S;M161D;R202E	with no effect

Variants of: B3
Conditions: with 4ebp1_human EIF4EBP1, Q13541
Sequence of 4ebp1_human EIF4EBP1, Q13541 (Q13541 whole entry): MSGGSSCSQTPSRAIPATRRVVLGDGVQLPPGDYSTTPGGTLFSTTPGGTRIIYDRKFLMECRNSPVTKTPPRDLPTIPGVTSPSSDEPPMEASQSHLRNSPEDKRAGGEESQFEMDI

Variant	effect of a mutation on the interaction
I85A;M101A	disrupting interaction strength
W95A	disrupting interaction strength

Variants of: B3
Conditions: with 4ebp1_human EIF4EBP1, Q13541
Remark: another data set of the same source

Variant	effect of a mutation on the interaction
S99N	increasing interaction strength

Variants of: B4
Conditions: with GIGYF2, Q6Y7W6-1

Variant	effect of a mutation on the interaction
W95A	with no effect
I85A;M101A	with no effect

Variants of: B4
Conditions: with GIGYF2, Q6Y7W6-1
Remark: another data set of the same source

Variant	effect of a mutation on the interaction
W95A	decreasing interaction strength
I85A;M101A	decreasing interaction strength

Variants of: B4
Conditions: with ggyf2_human GIGYF2, Q6Y7W6

Variant	effect of a mutation on the interaction
W95A	disrupting interaction strength
R103L;E149L	disrupting interaction strength
I85A;M101A	decreasing interaction strength

Variants of: B4
Conditions: with GIGYF2, Q6Y7W6-1
Remark: another data set of the same source

Variant	effect of a mutation on the interaction
Q159S;M161D;R202E	with no effect

Variants of: B5
Conditions: with EIF4E2, O60573-1

Variant	effect of a mutation on the interaction
L60D;F65D;V68D;E86A;N95F	disrupting interaction strength
E86A;N95F	with no effect
L60D;F65A;V68D	with no effect
L60D;F65D;V68D;P76D;L77A	disrupting interaction strength

Variants of: B5
Conditions: with EIF4E2, O60573-1
Remark: another data set of the same source

Variant	effect of a mutation on the interaction
E44A;E45F;Q87A	with no effect

Variants of: B5
Conditions: with EIF4E2, O60573-1
Remark: another data set of the same source

Variant	effect of a mutation on the interaction
Y39A;Y41A;M46A;L47A	disrupting interaction strength

Variants of: B5
Conditions: with EIF4E2, O60573-1
Remark: another data set of the same source

Variant	effect of a mutation on the interaction
E44F;E45A;Q87A	with no effect
